In patent US11110158B2, “Prostate-associated antigens and vaccine-based immunotherapy regimens” (Pfizer Inc., priority 2012, dated 2021):

B1: PSA membrane-bound: PSA amino acids 25-261 linked to human PSMA transmembrane domain (aa 15-54), SEQ ID NO: 19 (protein)
chain: MASARRPRWLCAGALVLAGGFFLLGFLFGWFIKSSNEATNITPGIVGGWECEKHSQPWQVLVASRGRAVCGGVLVHPQWVLTAAHCIRNKSVILLGRHSLFHPEDTGQVFQVSHSFPHPLYDMSLLKNRFLRPGDDSSHDLMLLRLSEPAELTDAVKVMDLPTQEPALGTTCYASGWGSIEPEEFLTPKKLQCVDLHVISNDVCAQVHPQKVTKFMLCAGRWTGGKSTCSGDSGGPLVCNGVLQGITSWGSEPCALPERPSLYTKVVHYRKWIKDTIVANP
B2: PSA secreted: native full length human PSA (amino acids 1-261), SEQ ID NO: 15 (protein, listed as Homo sapiens)
chain: MASWVPVVFLTLSVTWIGAAPLILSRIVGGWECEKHSQPWQVLVASRGRAVCGGVLVHPQWVLTAAHCIRNKSVILLGRHSLFHPEDTGQVFQVSHSFPHPLYDMSLLKNRFLRPGDDSSHDLMLLRLSEPAELTDAVKVMDLPTQEPALGTTCYASGWGSIEPEEFLTPKKLQCVDLHVISNDVCAQVHPQKVTKFMLCAGRWTGGKSTCSGDSGGPLVCNGVLQGITSWGSEPCALPERPSLYTKVVHYRKWIKDTIVANP

Tested on: PSA
Assay: Sandwich ELISA, anti-PSA antibody response in vaccinated mice
Assay type: in vivo, mouse
Conditions: Table 15; for # of positive: mice with anti-PSA antibody response / mice tested

Molecule	ELISA (OD = 1.0) Average (SD) (anti-PSA antibody titer at OD of 1.0)	# of positive
B1	4838 (835)	6/6
B2		2/6
